In patent publication US8969530B2, “Anti-clathrin heavy chain monoclonal antibody for inhibition of tumor angiogenesis and growth and application thereof” (Academia Sinica, priority 2011, dated 2015):

Experiments:
[1] = test system: MIA PaCa-2 cells; experiment: EGF and transferrin uptake (internalization) assay; type: cell-based, human; conditions: pretreated 50 μg/ml at 37° C.
Procedure: EGF and Tf uptake assays were carried out using a fluorescence-based approach, as previously described (26). Cells were washed with serum-free medium, incubated in 1% BSA in serum-free medium at 37° C., and pretreated with Pa65-2 or NM-IgG (50 μg/ml) at 37° C. They were then incubated with or without Alex 555-EGF (1 μg/ml, INVITROGEN™) or Alex 555-transferrin (50 μg/ml) at 37° C. or 4° C. The cells were imaged using a Leica TCS SP confocal microscope (Leica).

[2] = test system: blood vessels of human pancreatic cancer tissues; experiment: Immunofluorescent co-staining of Pa65-2 and UEA-1 in pancreatic cancer tissue
Procedure: The human pancreatic cancer gene expression arrays (Origene) were analyzed by an ABI9600 thermocycler (Applied Biosystems). Tissue arrays were purchased from Pantomics Inc. Tissue sections were stained with antibodies specific for CHC (Pa65-2), VEGF (GeneTex), HIF-1α (Millipore), NM-IgG, and UEA-1-FITC (Vector). Quantification of DAB intensity was by HistoQuest software (TissueGnostics). The protocol was approved by the institutional Review Board of Human Subjects Research Ethics Committee of Academia Sinica (Taipei).

[3] = test system: MIA PaCa-2 cells; experiment: Apoptosis assay (FLICA caspase activity); type: cell-based, human; conditions: 24 h
Procedure: Apoptosis of cultured cells was verified through the detection of caspase activity using sulforhodamine FLICA apoptosis detection kit (Immunochemistry Technologies). Cells in 96-well culture plates were treated with Pa65-2 or NM-IgG for 24 h. After incubating with FLICA, cells was read at ex/era of 550/595 nm with fluorescence plate reader (Molecular Devices).

[4] = test system: MIA PaCa-2 cells; experiment: Binding of Pa65-2 to cells by ELISA, flow cytometry and immunofluorescence; type: cell-based, human; conditions: flow cytometry, immunofluorescent analyses
Procedure: Cells were cultured in 96-well polystyrene plates for 3 days and then fixed with 2% paraformaldehyde. After blocking and washing twice with PBS/0.1 % Tween 20 (PBST0.1), the hybridoma supernatants were added and the plates were incubated for 2 h at room temperature. This was followed by washing and incubating with horseradish peroxidase (HRP)-conjugated goat anti-mouse IgG for 1 h. The colorimetric reaction was developed with the substrate ortho-phenylene-diamine (OPD) according to the manufacturer's instructions (Sigma), and was stopped by adding 3 N HCl. Absorbance at 490 nm was measured using a microplate reader. Each control and test group was tested in triplicate. Each experiment was repeated at least three times. To analyse binding, cells (1×10^5 cells per tube) were prepared, washed, centrifuged, and resuspended in 100 μl of PBS/1% FCS containing Pa65-2 or NM-IgG. Cells were incubated at 4° C. for 1 h, washed twice with PBS/1% FCS and stained with […] isothiocyanate (FITC)-labeled goat anti-mouse IgG at 4° C. for 20 min. The stained cells were washed twice and fluorescence signals were measured using a FACScan (BD). […]
(§1) 3×10^3 cells were cultured into each well of 96-well polystyrene plates for 3 days and fixed with 2% paraformaldehyde. […] Absorbance at 490 nm was measured using a microplate reader. […]

[5] = target: T1, human clathrin heavy chain (CHC) (Homo sapiens, UniProt Q00610); experiment: Target identification: immunoaffinity, LC-MS/MS, immunoprecipitation and Western blot; type: binding; conditions: immunoprecipitation and Western blot in parallel with mAb X-22; CHC knockdown
T1 construct: endogenous in cells; host or cells: MIA PaCa-2 (human pancreatic adenocarcinoma cells)
T1 sequence (Q00610 whole entry): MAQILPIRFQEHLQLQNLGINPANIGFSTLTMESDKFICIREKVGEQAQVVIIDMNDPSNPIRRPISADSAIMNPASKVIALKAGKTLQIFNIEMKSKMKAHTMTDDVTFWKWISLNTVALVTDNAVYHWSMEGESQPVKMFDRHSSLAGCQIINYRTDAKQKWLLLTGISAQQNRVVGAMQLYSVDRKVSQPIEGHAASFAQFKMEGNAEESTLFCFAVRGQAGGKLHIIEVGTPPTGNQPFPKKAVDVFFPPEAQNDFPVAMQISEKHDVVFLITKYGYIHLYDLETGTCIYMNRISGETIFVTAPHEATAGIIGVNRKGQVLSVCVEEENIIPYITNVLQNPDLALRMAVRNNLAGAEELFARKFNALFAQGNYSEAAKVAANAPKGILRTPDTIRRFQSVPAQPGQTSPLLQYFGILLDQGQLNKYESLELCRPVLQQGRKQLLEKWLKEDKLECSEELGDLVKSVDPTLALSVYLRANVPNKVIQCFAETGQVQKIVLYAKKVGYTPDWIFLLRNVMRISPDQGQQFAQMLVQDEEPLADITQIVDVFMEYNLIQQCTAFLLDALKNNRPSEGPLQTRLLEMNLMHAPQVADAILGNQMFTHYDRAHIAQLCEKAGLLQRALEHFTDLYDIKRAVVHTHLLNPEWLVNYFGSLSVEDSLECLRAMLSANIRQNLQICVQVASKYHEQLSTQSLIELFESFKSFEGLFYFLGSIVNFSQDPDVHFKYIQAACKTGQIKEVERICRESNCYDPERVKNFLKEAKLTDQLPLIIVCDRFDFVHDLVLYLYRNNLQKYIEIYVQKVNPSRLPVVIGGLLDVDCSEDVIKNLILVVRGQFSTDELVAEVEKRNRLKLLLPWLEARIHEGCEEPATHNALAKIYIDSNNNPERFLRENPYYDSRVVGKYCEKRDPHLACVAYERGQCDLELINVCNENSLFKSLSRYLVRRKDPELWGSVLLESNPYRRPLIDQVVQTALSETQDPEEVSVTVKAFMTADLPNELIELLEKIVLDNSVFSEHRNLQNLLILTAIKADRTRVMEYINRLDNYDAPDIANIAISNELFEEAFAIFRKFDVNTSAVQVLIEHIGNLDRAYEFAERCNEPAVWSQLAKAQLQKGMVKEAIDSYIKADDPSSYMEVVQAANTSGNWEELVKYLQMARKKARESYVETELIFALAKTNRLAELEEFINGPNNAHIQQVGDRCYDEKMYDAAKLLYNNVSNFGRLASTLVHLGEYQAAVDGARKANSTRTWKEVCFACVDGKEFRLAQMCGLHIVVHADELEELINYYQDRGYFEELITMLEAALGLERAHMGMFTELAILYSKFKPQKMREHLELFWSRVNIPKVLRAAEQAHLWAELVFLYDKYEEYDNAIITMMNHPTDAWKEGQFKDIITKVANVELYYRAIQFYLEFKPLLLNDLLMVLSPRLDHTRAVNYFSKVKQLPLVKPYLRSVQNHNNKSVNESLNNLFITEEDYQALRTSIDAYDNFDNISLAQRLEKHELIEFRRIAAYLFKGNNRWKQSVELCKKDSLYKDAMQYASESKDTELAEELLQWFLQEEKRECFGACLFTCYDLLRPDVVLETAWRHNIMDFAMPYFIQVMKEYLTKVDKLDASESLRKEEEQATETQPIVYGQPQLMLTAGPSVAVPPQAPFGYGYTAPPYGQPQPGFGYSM
Procedure: MIA PaCa-2 cell lysates were purified by protein G sepharose (GE), coupled with Pa65-2 and eluted with elution buffer. The eluates were separated by SDS-PAGE. The band of interest was cut from the gel, reduced with dithioerythreitol (DTE) alkylated with iodoacetamide (IAA) and digested with trypsin for 16 h at 37° C. The digested peptides were analyzed by LC-MS/MS sequencing in the Core Facility for Proteomics and Structural Biology Research at Academia Sinica (Taipei).
(§2) Cells were extracted with RIPA buffer and the supernatants were immunoprecipitated using either anti-CHC antibody, Pa65-2, mAb X-22 (Affinity), or anti-HIF-1α antibody (BD), then analyzed by immunoblotting. The signals were developed using enhanced chemiluminescence reagents (ECL) (Thermo).

[6] = test system: MIA PaCa-2 cells; experiment: Matrigel invasion assay; type: cell-based, human
Procedure: RT-CES (ACEA), a microelectronic cell sensor system, was used to count tire number of living cells. Cells (5×10^3) were seeded into each sensor-containing well in microliter plates. The electronic sensors provided a continuous (every 6 h), quantitative measurement of the cell index in each well. Cell growth was measured for 72 h, and cell indices for each well were recorded at all time points. Cell invasion was assayed in 24-well Biocoat Matrigel invasion chambers (8 μm; Millipore) according to the manufacturer's directions. Cells were counted under a microscope in five predetermined fields. Assays were performed in triplicate.

[7] = test system: pancreatic adenocarcinoma cell lines MIA PaCa-2 and AsPC-1; experiment: ELISA and Western blot binding screen on pancreatic adenocarcinoma cell lines; type: cell-based, human; conditions: MIA PaCa-2, AsPC-1 versus normal HUVEC, NNM, CCD-1112Sk
Procedure: as §2
Cells were cultured in 96-well polystyrene plates for 3 days and then fixed with 2% paraformaldehyde. After blocking and washing twice with PBS/0.1 % Tween 20 (PBST0.1), the hybridoma supernatants were added and the plates were incubated for 2 h at room temperature. This was followed by washing and incubating with horseradish peroxidase (HRP)-conjugated goat anti-mouse IgG for 1 h. The colorimetric reaction was developed with the substrate ortho-phenylene-diamine (OPD) according to the manufacturer's instructions (Sigma), and was stopped by adding 3 N HCl. Absorbance at 490 nm was measured using a microplate reader. Each control and test group was tested in triplicate. Each experiment was repeated at least three times. […] The stained cells were washed twice and fluorescence signals were measured using a FACScan (BD).
as §1

B1: Pa65-2: monoclonal antibody that recognizes human clathrin heavy chain (CHC); VH SEQ ID NO: 2, VL SEQ ID NO: 3 (antibody, listed as Homo sapiens, V domains shown)
VH: EVKLVESGGGLVKPGGSLNISCAASGFTFSNYVMSWVRQTPEKRLEWVATISSGDNYMYYPDSVKGRFTISSDNAKNTLFLQMSSLRSEDTALYYCARHFDNYEGNSMDYWGQGTSVTVSSAKTTPPSDYPLA
VL: DIVLTQSPATLSVTPGDSVSLSCRASQSIRSNLHWYQQKSHESPRLLIKYASQSISGIPSRFSGSGSGTDFILSINSVATEDFGVYFCQQSNSWPLTFGAGTKLELKRADAAPTVS
EGF uptake ([1]; Alex 555-EGF 1 μg/ml): blocked | transferrin uptake ([1]; Alex 555-transferrin 50 μg/ml): blocked | colocalization of Pa65-2 antigen with endothelial cell marker UEA-1 [2]: colocalized | cell apoptosis [3]: induced cell apoptosis | recognition of MIA PaCa-2 cells [4]: specifically recognize MIA PaCa-2 cells | specificity for CHC [5]: specifically recognized CHC | migration (FIG. 5C) [6]: inhibited | binding affinity to pancreatic cancer cell lines [7]: strong binding affinity
